B1: CD99-Ig fusion protein (Fc fusion)
chain: DGGFDLSDALPDNENKKPTAIPKKPSAGDDFDLGDAVVDGENDDPRPPNPPKPMPNPNPNHPSSSGSFSDADLADGVSGGEGKGGSDGGGSHRKEGEEAD

How the values were obtained:
[1] = target: HA of influenza A/Beijing (A/Beijing/262/95-like (H1N1)) on infected cells (influenza A virus A/Beijing/262/95-like (H1N1))
[2] = target: HA of influenza A/Moscow (A/Moscow/10/99-like (H3N2)) on infected cells (influenza A virus A/Moscow/10/99-like (H3N2))
[3] = target: HA of influenza A/Sydney (A/Sydney/5/97-like (H3N2)) on infected cells (influenza A virus A/Sydney/5/97-like (H3N2))
[4] = target: HA of influenza virus New Caledonia (H1N1) on infected cells (influenza A virus New Caledonia (H1N1))
[5] = target: HA of influenza virus Yamanashi (B strain) on infected cells (influenza B virus Yamanashi)
[6] = target: hemagglutinin-neuraminidase of Sendai virus (SV) on infected cells (Sendai virus)

Molecule | MFI [1] | MFI [2] | MFI [3] | MFI [4] | MFI [5] | MFI [6]
NKp46D2-Ig fusion protein produced in COS cells (membrane proximal domain of NKp46 fused to Fc of human IgG1) (from UniProt O76036 121-254) (Fc fusion) | 77 | 50 | 100 | 420 | 51 | 95
NKp30-Ig fusion protein (from UniProt O14931 19-135) (Fc fusion) | 4 | 8 | 8 | 10 |  | 
NKp44-Ig fusion protein (from UniProt O95944 22-190) (Fc fusion) | 128 | 24 | 120 | 518 | 117 | 350
NKp46D1-Ig fusion protein (membrane distal domain of NKp46 fused to Fc of human IgG1) (from UniProt O76036 22-120) (Fc fusion) | 7 | 8 | 10 | 5 | 8 | 8
NKp46-Ig fusion protein (from UniProt O76036 22-254) (Fc fusion) | 44 | 20 | 58 | 315 |  | 
B1 | 0 | 0 | 1 | 0 | 0 | 0.5

Reference: US20070203054A1 (YISSUM RESEARCH DEVELOPMENT COMPANY OF THE HEBREW …, published 2007)
